Experimental findings from patent US20240270857A1 (CHIA TAI TIANQING PHARMACEUTICAL GROUP, published 2024) are described below.

Positions count from the first letter of the chain named.

Assay [1] concerns the target T1, Human IL-1Rrp2/IL-1R6 protein, His Tag (ACROBiosystems, IL2-H52H6) (human, UniProt Q9HB29 20-335).
T1 construct: Bought protein; the soluble protein is likely only the extracellular part; also called hIL-36R; human IL36R antigen; not shown: His tag
T1 sequence: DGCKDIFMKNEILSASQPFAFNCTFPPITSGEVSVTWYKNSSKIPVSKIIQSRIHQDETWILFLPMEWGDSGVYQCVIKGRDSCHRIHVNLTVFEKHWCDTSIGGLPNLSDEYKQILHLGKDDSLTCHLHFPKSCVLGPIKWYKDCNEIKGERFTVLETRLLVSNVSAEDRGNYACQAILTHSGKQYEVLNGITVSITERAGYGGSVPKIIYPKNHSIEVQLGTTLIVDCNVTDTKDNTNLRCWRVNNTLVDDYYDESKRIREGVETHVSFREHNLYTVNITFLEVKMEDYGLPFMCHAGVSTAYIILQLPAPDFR
Briefly: ELISA, plate coated with human IL-1Rrp2/IL-1R6 His Tag, HRP-protein A/G, OD450. Here is the method:
The binding activity of anti-IL-36R antibodies to IL-36R was analyzed by ELISA using human IL-1Rrp2/IL-1R6 protein, His Tag (ACROBiosystems, IL2-H52H6) and CynoIL36R-ECD mFc (for detection of chimeric and humanized antibodies), and hIL36R-ECD hFc and CynoIL36R-ECD hFc protein (for detection of hybridoma antibodies) as antigens. A 96-well plate (Costar, 9018) was coated with 2 μg/mL antigen at 100 μL/well and incubated overnight at 4° C. After the 96-well plate was washed with a washing buffer (PBS containing 0.05% v/v Tween 20), a blocking buffer (PBS containing 2% bovine serum albumin) was added for blocking at 37° C. for 2 h. After the 96-well plate was washed with the washing buffer, 100 μL of the gradient diluted anti-IL-36R antibody of the present disclosure or the reference antibody BI655130 (the initial concentration of the antibody was 66 nM, 4-fold gradient dilution) was added to each well, and the plate was incubated at room temperature for 1 h. After the 96-well plate was washed with the washing buffer, 100 μL of horseradish peroxidase-conjugated recombinant protein A/G (TheroScientific, 32490) was added to each well, and the plate was incubated at room temperature for 1 h. After the 96-well plate was washed with the washing buffer, 100 μL of a TMB solution (Thermo, 00-4201-56) was added to each well, and the plate was incubated at room temperature for 2 min. Finally, 100 μL of a stop solution (2 N H₂SO₄) was added to each well to stop the reaction. Absorbance was read at 450 nm using a microplate reader (PE, Envision), the resulting data was analyzed using GraphPad Prism, and EC₅₀ was calculated. Binding EC₅₀ of the chimeric anti-IL-36R antibodies to hIL-36R in an ELISA assay is shown in FIG. 1. and binding EC₅₀ of the chimeric anti-IL-36R antibodies to CynoIL-36R in an ELISA assay is shown in FIG. 2. The binding of BI655130 is shown as a control, and the binding of IgG4 is shown as a negative control.
Background: In an ELISA, binding on a coated surface is turned into a signal by an enzyme label.

Assay [2] concerns the target T2, cynomolgus IL-36R overexpressed on 293T-CynoIL36R-NFκB cells (cynomolgus monkey).
T2 construct: Entry includes the signal peptide; also called monkey IL-36R
T2 chain: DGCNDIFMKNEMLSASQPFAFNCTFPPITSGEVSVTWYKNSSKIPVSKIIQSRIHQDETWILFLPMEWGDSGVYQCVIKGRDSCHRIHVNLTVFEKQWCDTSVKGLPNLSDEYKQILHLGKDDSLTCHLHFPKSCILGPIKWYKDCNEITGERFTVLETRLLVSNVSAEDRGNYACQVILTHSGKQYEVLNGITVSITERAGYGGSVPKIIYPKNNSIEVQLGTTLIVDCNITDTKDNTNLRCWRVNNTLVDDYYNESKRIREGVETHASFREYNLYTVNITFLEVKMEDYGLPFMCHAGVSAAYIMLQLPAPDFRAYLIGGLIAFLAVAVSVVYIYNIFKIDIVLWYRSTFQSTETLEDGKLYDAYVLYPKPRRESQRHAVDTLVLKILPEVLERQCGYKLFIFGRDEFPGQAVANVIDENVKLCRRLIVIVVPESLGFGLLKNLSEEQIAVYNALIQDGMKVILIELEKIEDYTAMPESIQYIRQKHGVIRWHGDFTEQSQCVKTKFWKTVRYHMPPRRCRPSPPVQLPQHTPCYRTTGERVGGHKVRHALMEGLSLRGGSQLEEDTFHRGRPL
The assay is described as follows: FACS on 293T-CynoIL36R-NFκB cells, ratio of MFI to background MFI. The protocol:
After the cells was washed with PBS, the cells were resuspended with 100 μL of PBS and then the fluorescence signal was detected using a flow cytometer (BD, Accuri C6). […] The ratio was the ratio of mean fluorescence intensity (MFI) of the experimental group/the background MFI, and the resulting data were analyzed using GraphPad Prism.
(§1) Affinity, binding and blocking assays for humanized antibodies hz72C1-1.1, hz72C1-1.2, hz72C1-1.3, hz72C1-2.1, hz72C1-2.2 and hz72C1-2.3 as well as hz84C4-1.1, hz84C4-1.2, hz84C4-1.3, hz84C4-1.4, hz84C4-1.5, hz84C4-2.1, hz84C4-2.2, hz84C4-2.3, hz84C4-2.4 and hz84C4-2.5 were performed according to the methods of Example 4, Example 5. Example 6, Example 7 and Example 8.

Assay [3] addresses T1, Human IL-1Rrp2/IL-1R6 protein, His Tag …. The assay is described as follows: BLI (ForteBio Octet), antibody on ProA sensor, 1:1 model. The protocol:
The affinity of anti-IL-36R antibodies to CynoIL36R-ECD mFc and human IL-1Rrp2/IL-IR6 protein, His Tag (ACROBiosystems, IL2-H52H6) was measured by a ForteBio molecular interaction instrument. […] And then the biosensor was used to bind CynoIL36R-ECD mFc or human IL-1Rrp2/IL-1R6 protein, His Tag which was diluted by a gradient (the initial concentration was 200 nM, 2-fold gradient dilution), the response signals were detected in real time using a Fortebio molecular interaction instrument (SARTORIUS, octet red 96e), and association and dissociation curves were obtained. After the completion of dissociation in each cycle, the biosensor was regenerated for the next capture; the procedure was repeated until the affinity of the different anti-IL-36R antibodies for IL-36R was determined. The resulting data were analyzed by Fortebio Data Analysis 11.0 software in a 1:1 (Langmuir) binding model to determine kₐ (kₒₙ) and kd (koff) values, and the dissociation constant KD was calculated by KD=kd/kₐ. The detection method essentially followed the manufacturer's recommendations, and more information could be found at www.fortebio.com.
as §1

B1: BI655130 (antibody, human IgG1, kappa, L234A L235A)
heavy: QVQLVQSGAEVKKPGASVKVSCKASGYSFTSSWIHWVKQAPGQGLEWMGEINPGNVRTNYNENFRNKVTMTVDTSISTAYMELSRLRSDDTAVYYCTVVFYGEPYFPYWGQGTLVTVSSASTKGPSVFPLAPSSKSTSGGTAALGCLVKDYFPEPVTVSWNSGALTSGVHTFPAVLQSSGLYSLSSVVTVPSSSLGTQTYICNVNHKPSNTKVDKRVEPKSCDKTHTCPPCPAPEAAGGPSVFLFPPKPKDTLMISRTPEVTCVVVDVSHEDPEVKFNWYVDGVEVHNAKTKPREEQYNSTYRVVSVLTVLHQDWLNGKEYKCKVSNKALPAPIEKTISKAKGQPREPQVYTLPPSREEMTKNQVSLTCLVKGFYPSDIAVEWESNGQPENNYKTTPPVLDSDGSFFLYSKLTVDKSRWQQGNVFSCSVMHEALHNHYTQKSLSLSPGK
light: QIVLTQSPGTLSLSPGERATMTCTASSSVSSSYFHWYQQKPGQAPRLWIYRTSRLASGVPDRFSGSGSGTDFTLTISRLEPEDAATYYCHQFHRSPLTFGAGTKLEIKRTVAAPSVFIFPPSDEQLKSGTASVVCLLNNFYPREAKVQWKVDNALQSGNSQESVTEQDSKDSTYSLSSTLTLSKADYEKHKVYACEVTHQGLSSPVTKSFNRGEC
notes: also called Spesolimab
By EC50 is commonly meant the concentration giving half of the maximal effect. The Kd is the equilibrium constant for the complex coming apart. The low end stands for higher affinity, the high end for lower affinity. Usually koff stands for the rate constant with which the complex falls apart. Read a high koff as fast dissociation. As a reminder, the kon is a measure of how fast the partners come together. Low values mean slower complex formation, high ones faster complex formation. In assay [1], B1 showed an EC50 of 0.764 nM. In addition, in assay [2], the EC50 was 5.64 nM. In assay [3], this molecule displayed a Kd of 0.713 nM, a koff of 5.84e-05 s⁻¹ and a kon of 81900 M⁻¹ s⁻¹.

B2: hz84C4-1.1 (antibody, human IgG4 S228P, kappa, V domains shown)
VH: QVQLVQSGAEVKKPGASVKVSCKASGYFFTSYWMNWVRQAPGQGLEWMGMIHPYDSETRYAQKFQGRVTMTVDKSTSTVYMELSSLRSEDTAVYYCASSTTAFAYWGQGTLVTVSS
VL: DIQMTQSPSSLSASVGDRVTITCRASQDIGNALNWYQQKPGKAPKRLIYATSSLDPGVPSRFSGSRSGTDFTLTISSLQPEDFATYYCLQYASSPYTFGQGTKVEIKR
notes: Humanized, human IgG4 / kappa
In assay [3], B2 had a Kd of 0.958 nM, a koff of 0.000102 s⁻¹ and a kon of 107000 M⁻¹ s⁻¹.

B3: hz84C4-2.1 (antibody, human IgG4 S228P, kappa, V domains shown)
VH: B2 VH
VL: B2 VL with Y36L, F71Y
notes: Humanized, human IgG4 / kappa
In assay [3], B3 displayed a Kd of 1.22 nM, a koff of 0.000116 s⁻¹ and a kon of 94500 M⁻¹ s⁻¹.

B4: hz84C4-2.2 (antibody, human IgG4 S228P, kappa, V domains shown)
VH: B2 VH with M50Y
VL: B2 VL with Y36L, F71Y
notes: Humanized, human IgG4 / kappa
For the molecule B4, in assay [3], the Kd worked out at 1.55 nM, the koff was 0.000142 s⁻¹ and the kon is 91500 M⁻¹ s⁻¹.

B5: hz84C4-1.2 (antibody, human IgG4 S228P, kappa, V domains shown)
VH: B2 VH with M50Y
VL: B2 VL
notes: Humanized, human IgG4 / kappa
In assay [3], B5 gave a Kd of 1.61 nM, an off-rate constant (koff) of 0.000161 s⁻¹ and a kon of 100000 M⁻¹ s⁻¹.

B6: hz84C4-1.4 (antibody, human IgG4 S228P, kappa, V domains shown)
VH: B2 VH with F28Y, Y60L, Q65K
VL: B2 VL
notes: Humanized, human IgG4 / kappa
In assay [3], B6 yielded a Kd of 1.98 nM, a koff of 0.000236 s⁻¹ and a kon of 119000 M⁻¹ s⁻¹.

B7: hz84C4-1.3 (antibody, human IgG4 S228P, kappa, V domains shown)
VH: B2 VH with H52Y
VL: B2 VL
notes: Humanized, human IgG4 / kappa
In assay [3], B7 yielded a Kd of 0.527 nM, a koff of 3.26e-05 s⁻¹ and a kon of 61900 M⁻¹ s⁻¹.

B8: hz84C4-2.5 (antibody, human IgG4 S228P, kappa, V domains shown)
VH: B2 VH with A24V, R38N, Y60L, Q65K
VL: B2 VL with Y36L, F71Y
notes: Humanized, human IgG4 / kappa
Consider B8, for which, in assay [3], the dissociation constant (Kd) was 1.44 nM, the koff was 0.000138 s⁻¹ and the kon was 96400 M⁻¹ s⁻¹.

B9: hz84C4-2.3 (antibody, human IgG4 S228P, kappa, V domains shown)
VH: B2 VH with H52Y
VL: B2 VL with Y36L, F71Y
notes: Humanized, human IgG4 / kappa
In assay [3], B9 gave a Kd of 0.831 nM, a koff of 5.12e-05 s⁻¹ and a kon of 61600 M⁻¹ s⁻¹.

B10: hz84C4-1.5 (antibody, human IgG4 S228P, kappa, V domains shown)
VH: B2 VH with A24V, R38N, Y60L, Q65K
VL: B2 VL
notes: Humanized, human IgG4 / kappa
B10: in assay [3], the Kd was determined as 1.34 nM, the koff turned out to be 0.000134 s⁻¹ and the kon was found to be 100000 M⁻¹ s⁻¹.

B11: hz84C4-2.4 (antibody, human IgG4 S228P, kappa, V domains shown)
VH: B2 VH with F28Y, Y60L, Q65K
VL: B2 VL with Y36L, F71Y
notes: Humanized, human IgG4 / kappa
B11: in assay [3], the affinity, expressed as Kd, was 1.88 nM; the koff amounted to 0.000196 s⁻¹; the kon turned out to be 105000 M⁻¹ s⁻¹.

B12: hz72C1-1.2 (antibody, human IgG4 S228P, kappa)
heavy: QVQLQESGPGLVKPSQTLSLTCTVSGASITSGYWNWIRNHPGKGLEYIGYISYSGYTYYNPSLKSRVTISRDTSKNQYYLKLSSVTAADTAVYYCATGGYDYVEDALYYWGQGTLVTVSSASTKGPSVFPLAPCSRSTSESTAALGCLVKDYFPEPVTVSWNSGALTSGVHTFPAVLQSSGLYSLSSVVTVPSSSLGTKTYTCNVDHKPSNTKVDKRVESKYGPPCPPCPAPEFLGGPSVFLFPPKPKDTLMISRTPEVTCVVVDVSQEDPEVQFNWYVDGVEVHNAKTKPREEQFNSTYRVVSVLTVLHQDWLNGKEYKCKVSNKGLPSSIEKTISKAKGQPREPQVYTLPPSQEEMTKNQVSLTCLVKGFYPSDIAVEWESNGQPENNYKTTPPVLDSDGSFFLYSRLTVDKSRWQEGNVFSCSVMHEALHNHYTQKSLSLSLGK
light: DIQMTQSPSSLSASVGDRVTITCRASSNVRYMYWYQQKPGKAPKLWIYLTSNLASGVPSRFSGSGSGTSYTLTISSLQPEDFATYYCQQFTTSPYTFGQGTKLEIKRTVAAPSVFIFPPSDEQLKSGTASVVCLLNNFYPREAKVQWKVDNALQSGNSQESVTEQDSKDSTYSLSSTLTLSKADYEKHKVYACEVTHQGLSSPVTKSFNRGEC
notes: Humanized, human IgG4 / kappa
Consider B12, for which the EC50 was 5.02 nM in assay [1] and roughly 4.94 nM in assay [2].

B13: hz72C1-2.3 (antibody, human IgG4 S228P, kappa)
heavy: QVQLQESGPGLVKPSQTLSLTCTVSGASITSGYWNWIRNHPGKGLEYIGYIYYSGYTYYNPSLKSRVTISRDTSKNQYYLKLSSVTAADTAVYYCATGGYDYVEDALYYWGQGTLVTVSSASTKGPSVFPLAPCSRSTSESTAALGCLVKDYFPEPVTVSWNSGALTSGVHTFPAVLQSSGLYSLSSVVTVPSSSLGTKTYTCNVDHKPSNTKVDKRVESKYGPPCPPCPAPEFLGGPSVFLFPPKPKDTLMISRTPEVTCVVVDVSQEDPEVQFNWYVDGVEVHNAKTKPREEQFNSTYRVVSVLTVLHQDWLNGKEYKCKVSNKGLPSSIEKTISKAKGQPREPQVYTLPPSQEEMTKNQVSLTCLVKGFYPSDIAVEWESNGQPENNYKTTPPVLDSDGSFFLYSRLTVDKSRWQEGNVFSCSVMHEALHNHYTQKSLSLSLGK
light: B12 light with F90Y
notes: Humanized, human IgG4 / kappa
With B13, the EC50 in assay [1] worked out at 8.9 nM; in assay [2] it was 4.84 nM.

B14: hz72C1-2.1 (antibody, human IgG4 S228P, kappa)
heavy: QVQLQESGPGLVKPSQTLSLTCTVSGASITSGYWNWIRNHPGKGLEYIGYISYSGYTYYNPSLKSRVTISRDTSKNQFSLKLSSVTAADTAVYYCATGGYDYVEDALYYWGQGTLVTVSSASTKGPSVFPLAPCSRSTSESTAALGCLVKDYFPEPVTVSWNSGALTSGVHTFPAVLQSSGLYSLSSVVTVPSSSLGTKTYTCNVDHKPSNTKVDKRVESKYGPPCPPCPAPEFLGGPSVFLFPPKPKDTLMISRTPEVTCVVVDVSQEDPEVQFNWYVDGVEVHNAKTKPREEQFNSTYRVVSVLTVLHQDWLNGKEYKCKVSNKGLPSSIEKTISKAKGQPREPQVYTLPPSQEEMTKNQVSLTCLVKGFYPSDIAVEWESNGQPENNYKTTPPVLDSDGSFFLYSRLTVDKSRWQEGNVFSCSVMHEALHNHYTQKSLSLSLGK
light: B12 light with F90Y
notes: Humanized, human IgG4 / kappa
As to B14, the results for the EC50 in assay [1] and in assay [2] were 9.35 nM and 5.58 nM, respectively.

B15: hz72C1-1.1 (antibody, human IgG4 S228P, kappa)
heavy: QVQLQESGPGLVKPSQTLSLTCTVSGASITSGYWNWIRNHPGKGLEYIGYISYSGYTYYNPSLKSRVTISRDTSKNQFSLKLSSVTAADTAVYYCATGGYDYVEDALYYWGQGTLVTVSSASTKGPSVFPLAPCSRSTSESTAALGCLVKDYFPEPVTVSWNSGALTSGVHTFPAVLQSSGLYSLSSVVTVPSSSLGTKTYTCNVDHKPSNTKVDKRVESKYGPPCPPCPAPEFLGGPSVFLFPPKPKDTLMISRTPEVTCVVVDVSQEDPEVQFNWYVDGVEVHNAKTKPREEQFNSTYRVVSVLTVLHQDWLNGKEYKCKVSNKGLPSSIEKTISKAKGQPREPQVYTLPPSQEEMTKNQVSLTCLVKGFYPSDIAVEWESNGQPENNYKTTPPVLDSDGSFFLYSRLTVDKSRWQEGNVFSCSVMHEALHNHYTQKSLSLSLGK
light: B12 light
notes: Humanized, human IgG4 / kappa; also called humanized 72C1 antibody 1.1
As to B15, the EC50 in assay [1] was found to be 2.94 nM; in assay [2] it was 5.21 nM.

B16: hz72C1-2.2 (antibody, human IgG4 S228P, kappa)
heavy: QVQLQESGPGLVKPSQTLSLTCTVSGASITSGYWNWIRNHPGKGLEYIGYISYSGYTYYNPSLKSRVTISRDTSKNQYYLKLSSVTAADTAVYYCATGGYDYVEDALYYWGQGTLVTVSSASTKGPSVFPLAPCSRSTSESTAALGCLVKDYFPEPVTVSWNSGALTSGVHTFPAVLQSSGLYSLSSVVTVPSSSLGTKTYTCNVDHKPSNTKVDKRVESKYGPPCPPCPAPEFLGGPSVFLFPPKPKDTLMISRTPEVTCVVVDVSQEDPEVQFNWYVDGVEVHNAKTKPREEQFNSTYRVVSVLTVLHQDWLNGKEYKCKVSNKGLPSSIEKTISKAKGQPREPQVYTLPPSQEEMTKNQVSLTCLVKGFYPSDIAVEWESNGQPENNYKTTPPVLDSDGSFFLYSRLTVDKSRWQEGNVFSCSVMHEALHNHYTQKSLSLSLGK
light: B12 light with F90Y
notes: Humanized, human IgG4 / kappa
Regarding B16, the results for the EC50 in assay [1] and in assay [2] were 4.88 nM and 7.25 nM, respectively.

B17: hz72C1-1.3 (antibody, human IgG4 S228P, kappa)
heavy: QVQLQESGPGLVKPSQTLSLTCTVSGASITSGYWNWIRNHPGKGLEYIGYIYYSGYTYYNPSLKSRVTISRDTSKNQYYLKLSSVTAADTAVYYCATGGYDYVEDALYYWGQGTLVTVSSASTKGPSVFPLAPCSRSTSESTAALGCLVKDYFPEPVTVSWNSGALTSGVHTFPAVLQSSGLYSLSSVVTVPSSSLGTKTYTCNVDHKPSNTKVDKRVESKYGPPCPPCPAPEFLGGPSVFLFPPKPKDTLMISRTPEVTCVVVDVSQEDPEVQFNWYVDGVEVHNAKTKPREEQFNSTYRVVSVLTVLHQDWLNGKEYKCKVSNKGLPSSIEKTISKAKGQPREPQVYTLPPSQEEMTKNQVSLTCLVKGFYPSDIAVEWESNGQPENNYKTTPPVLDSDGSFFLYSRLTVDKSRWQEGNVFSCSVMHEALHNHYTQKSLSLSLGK
light: B12 light
notes: Humanized, human IgG4 / kappa
With B17, the EC50 in assay [1] is 2.86 nM; in assay [2] it was 5.76 nM.
